According to paper PMC6718376:

Key:
[1] = molecular target: respiratory syncytial virus protein F (respiratory syncytial virus) (UniProt P03420); assay: plasmonic light-scattering biosensor array (localised gold nanoparticle plasmon); Fab assay: RSVF immobilised on array spots by EDC/NHS coupling, BSA reference spots and BSA blocking; NISTmAb injected at 1.56, 3.23 and 6.25 nM in PBS; global fit to the Langmuir 1:1 model
[2] = molecular target: Pierce recombinant protein A/G; assay: plasmonic light-scattering biosensor array (localised gold nanoparticle plasmon); Fc assay: protein A/G immobilised on array spots by EDC/NHS coupling, BSA reference spots and BSA blocking; antibody in PBS; NISTmAb kinetics from a global Langmuir fit to low concentrations with ϑm floating; all antibody samples at 100 nM for 300 s, 500 s wash
[3] = molecular target: NISTmAb (NIST RM 8671), recombinant humanized IgG1κ specific to respiratory syncytial virus protein F (human (humanized IgG1κ)); assay: plasmonic light-scattering biosensor array (localised gold nanoparticle plasmon); antigen assay: antibody (100 nM) first captured by its Fc on the protein A/G surface, then antigen at 100 nM in PBS injected for 300 s; stoichiometry from ϑm antigen/ϑm Fc normalised for the masses of antigen and intact IgG
Chain of NISTmAb (NIST RM 8671), recombinant humanized IgG1κ specific to respiratory syncytial virus protein F (human (humanized IgG1κ)) (heavy, as listed by the source, chain 1 of 2): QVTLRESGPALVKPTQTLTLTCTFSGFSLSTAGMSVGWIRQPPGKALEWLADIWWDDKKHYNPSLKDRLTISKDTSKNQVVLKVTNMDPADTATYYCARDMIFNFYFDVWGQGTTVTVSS
Chain of NISTmAb (NIST RM 8671), recombinant humanized IgG1κ specific to respiratory syncytial virus protein F (human (humanized IgG1κ)) (light, as listed by the source, chain 2 of 2): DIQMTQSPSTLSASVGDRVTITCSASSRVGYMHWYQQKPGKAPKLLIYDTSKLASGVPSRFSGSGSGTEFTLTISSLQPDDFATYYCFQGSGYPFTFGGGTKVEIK

Substance	Kd [1] [nM]	koff [1] [s⁻¹]	kon [1] [M⁻¹ s⁻¹]	koff [2] [s⁻¹]	kon [2] [M⁻¹ s⁻¹]	stoichiometry N (antigens per antibody) [3]
NISTmAb (NIST RM 8671), recombinant humanized IgG1κ specific to respiratory syncytial virus protein F (antibody)	2.7	0.00024	89000	2e-05	59000	–
respiratory syncytial virus protein F (from UniProt P03420 26-574) (natural protein)	–	–	–	–	–	1.31
